According to patent publication US20030220285A1:

Legend:
[1] = target: purified HLA-A11 molecules (human)
[2] = target: purified HLA-A2.1 molecules (human); conditions: remark: other sources report otherwise

Binder | IC50 [1] [nM] | IC50 [2] [nM]
TVYYGVPVWK (modifications not checked) [HIV Env 49 (HIV env 49-58) peptide …] | 4 | –
WLSLLVPFV (modifications not checked) [HBV Env 335 (HBV env 335-343) peptide …] | – | 5
